Test results from PMC7079100.

Key:
[1] = target: T1, MSI2-RRM1 (Homo sapiens, UniProt Q96DH6 21-111); assay: fluorescence polarization; 2 nM RNA; highest affinity of the three; Kd only in figure; FP at room temperature, 2 nM 3' FAM RNA; buffer, salt and pH not given (previously described methods)
[2] = target: T1, MSI2-RRM1; assay: fluorescence polarization; 2 nM RNA; lower affinity than Numb15; Kd only in figure; FP at room temperature, 2 nM 3' FAM RNA; buffer, salt and pH not given (previously described methods)

T1 sequence (Q96DH6 21-111): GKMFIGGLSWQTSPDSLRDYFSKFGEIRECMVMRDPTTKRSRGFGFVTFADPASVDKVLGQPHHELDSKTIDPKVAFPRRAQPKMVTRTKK

| Binder | binding result [1] | binding result [2] |
| --- | --- | --- |
| UAGGUAGUAGUUUUA (ssRNA) [Numb15] | binds |  |
| GUAGUAGU (ssRNA) [Numb8] |  | binds |
| GUAGU (ssRNA) [Numb5] |  | binds |
